Reference: patent US20160083466A1

Molecular target: human IL-25 expressed with a C-terminal myc-myc-hexahistidine tag (human)
Assay: competition ELISA, 2 nM hIL-25-MMH binding to coated hIL-17RB-hFc; IC50 cell printed 'Non-blocker'

Sequence of human IL-25 expressed with a C-terminal myc-myc-hexahistidine tag (human) (chain, as listed by the source): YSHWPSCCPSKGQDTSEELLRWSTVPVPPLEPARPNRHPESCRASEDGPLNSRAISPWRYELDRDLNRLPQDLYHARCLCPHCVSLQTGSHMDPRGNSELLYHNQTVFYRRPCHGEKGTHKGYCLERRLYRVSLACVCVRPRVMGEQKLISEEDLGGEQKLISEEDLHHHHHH

% Maximum blocking of 200 nM antibody | Substance
-31% | hIgG4 isotype control (antibody)
-45% | mIgG2a isotype control (antibody)
